{
  "source": "patent US20250295796A1",
  "about": "“CELL PENETRATING POLYPEPTIDES (CPPS) AND THEIR USE IN HUMAN THERAPY” (RDP PHARMA AG, priority 2021, published 2025)",
  "molecules": {"B1": {"name": "CROMOC36: single chain PvuII endonuclease fused at its C-terminus to DDM36, PEGylated final product used in the Examples (protein)", "chain": "MSHPDLNKLLELWPHIQEYQDLALKHGINDIFQDNGGKLLQVLLITGLTVLPGREGNDAVDNAGQEYELKSINIDLTKGFSTHHHMNPVIIAKYRQVPWIFAIYRGIAIEAIYRLEPKDLEFYYDKWERKWYSDGHKDINNPKIPVKYVMEHGTKIYGSGGSGGSSHPDLNKLLELWPHIQEYQDLALKHGINDIFQDNGGKLLQVLLITGLTVLPGREGNDAVDNAGQEYELKSINIDLTKGFSTHHHMNPVIIAKYRQVPWIFAIYRGIAIEAIYRLEPKDLEFYYDKWERKWYSDGHKDINNPKIPVKYVMEHGTKIYGNSGSGKKKKKGKGSGLGSGKKKDPLGSGLGSGKKKKKGKGSGLGSGKKKDPLGST", "modifications": "PEGylated; peptide, CROMOC36"}},
  "key": {"[1]": {"test_system": "M5076 ovarian reticulum sarcoma tumor cell line", "experiment": "M5076 artificial hepatic metastasis model, i.v. route"}, "[2]": {"test_system": "human colon carcinoma with null p53 (HCT116 p53−/−) xenograft", "experiment": "HCT116 p53-/- xenograft, CROMOC36 versus nuclease impaired CROMOC60", "assay_type": "in vivo, mouse", "details": "s.c. 4 mg/kg on days 0, 1, 2, 3, 6, 7, 8, 9, 10, 20, 22, 24", "experimental": "FIG. 7: HCT116 p53−/− human colon carcinoma xenograft. Treatment on advanced tumors (volume >50 mm^3). Dose: CROMOC36 4 mg/kg; CROMOC60 4 mg/kg. Treatment: s.c. administration on day 0, 1, 2, 3, 6, 7, 8, 9, 10, 20, 22, 24.\nA study was conducted to test the antitumor efficacy of CROMOC36 on an advanced human colon carcinoma with null p53 (HCT116 p53−/−) xenograft model and compare it to a vehicle or a nuclease impaired version CROMOC60 treatment group. CROMOC60 is no more catalytically active as a nuclease but is able to be transported to the nucleus of a cell. This study was also designed to proof that the active principle of the tumor growth inhibiting activity of CROMOC is the nuclease activity in vivo. CROMOC36 and CROMOC60 were both administered subcutaneously (s.c.) at 4 mg/kg dose on the days 0, 1, 2, 3, 6, 7, 8, 9, 10, 20, 22, 24. […] This also proofs that CROMOC36 can serve as a valid DNA DSB reagent."}, "[3]": {"test_system": "HCT116 human colon carcinoma xenograft with null p53 (HCT116 p53−/−)", "experiment": "HCT116 p53-/- xenograft, single agent and combination with cisplatin or vincristine", "assay_type": "in vivo, female athymic nude mice", "experimental": "A study was conducted to evaluate the efficacy and tolerability of CROMOC36 against an HCT116 human colon carcinoma xenograft model with null p53 (HCT116 p53−/−) in female athymic nude mice. CROMOC36 was administered subcutaneously (s.c.) three times at intervals of two weeks (q14dx3) as a single agent or in combination with cisplatin (CDDP) at 4 mg/kg or vincristine (VCR) at 2 mg/kg which were both administered five times at intervals of one week (q7dx5). CROMOC36 was tested at 32 mg/kg or using a decreasing dosage of 32-16-16 mg/kg. CDDP and VCR were also administered as single agents to allow comparison of the efficacy of CROMOC36 with commonly used anticancer drugs. The dose and schedule of CDDP and VCR treatments remained the same when tested as single agents or in combination with CROMOC36. […] Efficacy was also evaluated by measuring the tumor growth delay (TGD) and the number of regression responses."}, "[4]": {"test_system": "immortalized non-tumor cells", "experiment": "SRB assay, cytotoxicity to non-tumor cells versus cancer cells"}, "PATU8988T": {"test_system": "PATU8988T", "experiment": "Propidium iodide monolayer assay, PATU8988T", "assay_type": "cell-based, human", "details": "four days", "experimental": "(§1) Monolayer Assay Propidium Iodid (PI). Cells were harvested from exponential phase cultures, counted and depending on the cell line 3.000 to 20.000 cells were plated in 96-well flat-bottom microtiter plates After a 24 h recovery period to allow cells to resume exponential growth, 10 μl of culture medium (four control wells/plate) or culture medium with the test compound were added by a liquid handling robotic system and treatment continued for four days. Compounds were applied in half-log increments at 10 concentrations in duplicate. Three independent experiments were performed. Cells were then washed with 200 μl PBS to remove dead cells followed by addition of 200 μl of a solution containing 7 μg/ml propidium iodide (PI) and 0.1% (v/v) Triton X-100. After an incubation period of 1-2 h at room temperature, fluorescence (FU) was measured using the Cytofluor 4000 microplate reader (excitation λ=530 nm, emission λ=620 nm) to quantify the amount of attached viable cells. […]\n(§2) CROMOC36—in vitro activity Human pancreatic carcinoma cell lines. […] Antitumor activity was assessed after four days of CROMOC36 treatment using a propidium iodide based monolayer proliferation assay. […]"}, "[5]": {"test_system": "IMR32 human neuroblastoma xenograft", "experiment": "IMR32 human neuroblastoma xenograft model", "assay_type": "in vivo, mice", "details": "q14dx2", "text": "FIG. 11: IMR32 s.c. implanted. Treatment on xenograft mice with advanced tumors (volume >50 mm^3). Variation in tumor volume expressed as percentage with respect to initial volume (day 0; designated as 100%). Final measurements for vehicle (PBS) and Doxorubicin groups were taken on day 42. For the remaining groups, final measurements were taken on day 63, the termination day of the experiment. Growth reduction compared to controls on day 42 (p<0.01).\nThe aim of this study was to assess the in vivo efficacy of CROMOC36 on a IMR32 human neuroblastoma xenograft model. CROMOC36 was administered subcutaneously (s.c.) at intervals of two weeks (q14dx2) at two different doses (32 mg/Kg) and also in combination with doxorubicin administered intravenously (i.v.) (32/kg CROMOC36+4+4 mg/Kg doxorubicin, s.c and i.v., q14dx2). Doxorubicin was also used alone as a reference compound (8 mg/kg, i.v., q14dx2). Vehicle was PBS."}, "HUPT3": {"test_system": "HUPT3", "experiment": "Propidium iodide monolayer assay, HUPT3", "assay_type": "cell-based, human", "details": "HUPT3, four days", "experimental": "as §1, §2"}, "[6]": {"test_system": "4T1 breast tumor lung metastasis", "experiment": "Organ-distribution in 4T1 breast tumor lung metastasis mouse model", "details": "four hours after i.v. 8 mg/kg, ex vivo total photon flux", "experimental": "In vivo organ-distribution of CROMOC36-AF680 molecules in tumor containing mice. First orthotopic allograft 4T1 breast tumor lung metastasis mouse model was analyzed for CROMOC-AF680 distribution in vivo (FIG. 19A). Four hours after i.v. injection of 8 mg/kg of the CROMOC molecule labeled with the AF680 fluorescent dye, lungs containing 4T1cell metastasis were isolated and fluorescence intensity was assessed ex vivo (total photon flux shown on X-axis logarithmic scale)."}},
  "data": [
    {"molecule": "B1", "values": [
      {"measurement": "% ILS (mean survival time versus control group)", "setting": "[1]; CROMOC36 16 mg/kg i.v. q7dx3, Doxorubicin 6 mg/kg q4dx3 (MTD)", "value": 68, "unit": "%"},
      {"measurement": "antimetastatic activity in Liver M5076 allograft", "setting": "[1]; i.v. route, 16 mg/kg q7dx3", "value": "strong antimetastatic activity"},
      {"measurement": "progression of HCT116 p53−/− human colon carcinoma as compared to vehicle control", "setting": "[2]", "value": "significantly inhibited"},
      {"measurement": "tumor growth inhibition", "setting": "[3]; CROMOC36 32 mg/kg s.c. q14dx3, single agent", "value": 82.9, "unit": "%"},
      {"measurement": "partial regression response", "setting": "[3]; CROMOC36 32-16-16 mg/kg", "value": "one"},
      {"measurement": "tumor-free survivor", "setting": "[3]; CROMOC36 32-16-16 mg/kg", "value": "one"},
      {"measurement": "tumor growth inhibition with respect to single-agent CROMOC36", "setting": "[3]; CROMOC36 32-16-16 mg/kg in combination with CDDP or VCR", "value": "did not change significantly"},
      {"measurement": "persistence of inhibitory effect", "setting": "[3]; CROMOC36 32-16-16 mg/kg, single agent or in combination with CDDP or VCR, three weeks after the last treatment", "value": "persisted until day 50"},
      {"measurement": "tumor growth inhibition", "setting": "[3]; CROMOC36 decreasing 32-16-16 mg/kg s.c. q14dx3, single agent", "value": 91.6, "unit": "%"},
      {"measurement": "% TGD (tumor growth delay)", "setting": "[3]; endpoint tumor volume of 1000 mm^3, CROMOC36 as single agent or in combination", "value": "> 117", "unit": "%"},
      {"measurement": "time to study endpoint (TTE)", "setting": "[3]; endpoint tumor volume of 1000 mm^3, control Day 23, CROMOC36 as single agent or in combination", "value": "> 50", "unit": "days"},
      {"measurement": "times less cytotoxic to immortalized non-tumor cells than to cancer cells", "setting": "[4]", "value": "40->100"},
      {"measurement": "IC50", "setting": "PATU8988T", "value": 2.79, "unit": "nM"},
      {"measurement": "tumor growth inhibition compared to controls", "setting": "[5]; CROMOC36 32/kg s.c. + doxorubicin 4+4 mg/Kg i.v.", "value": 89, "unit": "%"},
      {"measurement": "tumor growth inhibition (TGI) compared to controls", "setting": "[5]; single agent, CROMOC36 32 mg/Kg s.c., doxorubicin 8 mg/kg i.v.", "value": 82, "unit": "%"},
      {"measurement": "IC50", "setting": "HUPT3", "value": "~10", "unit": "nM"},
      {"measurement": "enrichment in lungs of breast tumor metastasis containing animals versus tumor free animals", "setting": "[6]", "value": "more than 10.000 ×"}
    ]}
  ]
}
